According to patent US20060241051A1 (Takeda / Millennium, published 2006):
Like-named read-outs stand apart in the source and are kept apart here. Square brackets hold non-standard residues; d marks the D form. Ends that are not written are not given here. * marks the point of attachment. Phe(3,4-Cl2) = N[C@@H](Cc1ccc(Cl)c(Cl)c1)C(=O)O; Propanoyl(3-(3-pyridyl)) = O=C(CCc1cccnc1)*; Arg(Me) = CNC(=N)NCCC[C@H](N)C(=O)O; Bta = N[C@@H](Cc1csc2ccccc12)C(=O)O; 4Pal = N[C@@H](Cc1ccncc1)C(=O)O; d4Pal = N[C@H](Cc1ccncc1)C(=O)O; Cha = N[C@@H](CC1CCCCC1)C(=O)O; Abu = CC[C@H](N)C(=O)O; azaGly = NNC(=O)O

What was measured:
[1] = target: human OT7T175 (metastin receptor) (human) (UniProt Q969F8); assay: FMAT competition with Cy-5-labeled metastin (40-54), hOT7T175-expressed CHO cells
Chain of human OT7T175 (metastin receptor) (human) (Q969F8 whole entry L364H): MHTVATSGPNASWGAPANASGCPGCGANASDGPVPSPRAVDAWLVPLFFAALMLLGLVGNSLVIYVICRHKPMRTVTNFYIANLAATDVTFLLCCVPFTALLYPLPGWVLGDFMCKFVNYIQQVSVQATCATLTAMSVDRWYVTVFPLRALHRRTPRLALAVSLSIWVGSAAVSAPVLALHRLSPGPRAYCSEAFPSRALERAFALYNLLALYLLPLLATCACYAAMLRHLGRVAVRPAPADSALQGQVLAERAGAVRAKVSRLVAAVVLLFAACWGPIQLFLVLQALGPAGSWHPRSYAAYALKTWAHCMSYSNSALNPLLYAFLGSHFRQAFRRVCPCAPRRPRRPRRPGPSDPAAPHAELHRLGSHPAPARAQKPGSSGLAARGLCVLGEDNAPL

[2] = target: T1, human OT7T175 (metastin receptor) (human, UniProt Q969F8 1-398); assay: cell-based or functional assay
T1 sequence (Q969F8 whole entry L364H): as above

[3] = target: T1, human OT7T175 (metastin receptor); assay: FMAT competition with Cy-5-labeled metastin (40-54), hOT7T175-expressed CHO cells
[4] = target: T1, human OT7T175 (metastin receptor); assay: cell-based or functional assay; remark: listed apart in the source
[5] = target: T1, human OT7T175 (metastin receptor); assay: cell-based or functional assay; remark: listed apart in the source
[6] = target: T1, human OT7T175 (metastin receptor); assay: cell-based or functional assay; remark: listed apart in the source

Molecule | IC50 [1] | intracellular Ca ion level-increasing activity (FLIPR) [2] | IC50 [3] | cell growth inhibition activity, IC50 [4] | intracellular Ca ion level-increasing activity (FLIPR) [5] | intracellular Ca ion level-increasing activity (FLIPR) [6]
Compound No. 238: [D-Tyr1,D-Asn2,D-Trp3,AzaGly7,Arg(Me)9]MS10 (peptide) | 49 nM | – | – | – | – | –
YNWNSXGLRF (Nal(2)6; C-terminal amide) [Compound No. 152: [Nal(2)6]MS10] | – | 5 specific activity to metastin (1-54) | 180 nM | – | – | –
[dY]NWNSFGL[Arg(Me)]F-NH2 [Compound No. 141: [D-Tyr1,Arg(Me)9]MS10] | – | – | – | 87 nM | – | –
[dY]N[Cha]NS[Cha]GL[Arg(Me)]W-NH2 (N-terminus assumed; SMILES CNC(=N)NCCC[C@H](NC(=O)[C@H](CC(C)C)NC(=O)CNC(=O)[C@H](CC1CCCCC1)NC(=O)[C@H](CO)NC(=O)[C@H](CC(N)=O)NC(=O)[C@H](CC1CCCCC1)NC(=O)[C@H](CC(N)=O)NC(=O)[C@H](N)Cc1ccc(O)cc1)C(=O)N[C@@H](Cc1c[nH]c2ccccc12)C(N)=O) [Compound No. 182: [D-Tyr1,Cha3,6,Arg(Me)9,Trp10]MS10] | – | 5 specific activity to metastin (1-54) | 98 nM | – | – | –
[dY]N[Cha]NSF[azaGly]L[Arg(Me)]F-NH2 (N-terminus assumed; SMILES CNC(=N)NCCC[C@H](NC(=O)[C@H](CC(C)C)NC(=O)NNC(=O)[C@H](Cc1ccccc1)NC(=O)[C@H](CO)NC(=O)[C@H](CC(N)=O)NC(=O)[C@H](CC1CCCCC1)NC(=O)[C@H](CC(N)=O)NC(=O)[C@H](N)Cc1ccc(O)cc1)C(=O)N[C@@H](Cc1ccccc1)C(N)=O) [Compound No. 190: [D-Tyr1,Cha3,AzaGly7,Arg(Me)9]MS10] | – | 10 specific activity to metastin (1-54) | 12 nM | – | – | –
[dY][d4Pal]NSF[azaGly]L[Arg(Me)]F-NH2 (N-terminus assumed; SMILES CNC(=N)NCCC[C@H](NC(=O)[C@H](CC(C)C)NC(=O)NNC(=O)[C@H](Cc1ccccc1)NC(=O)[C@H](CO)NC(=O)[C@H](CC(N)=O)NC(=O)[C@@H](Cc1ccncc1)NC(=O)[C@H](N)Cc1ccc(O)cc1)C(=O)N[C@@H](Cc1ccccc1)C(N)=O, also called KiSS305; KiSS1-305) [Compound No. 305: des(1)-[D-Tyr2,D-Pya(4) 3,AzaGly7,Arg(Me)9]MS10] | – | – | 1.3 nM | 8.94 nM | 5 specific activity to metastin (1-54) | –
YNWNSXGLRF (Nal(1)6; C-terminal amide) [Compound No. 151: [Nal(1)6]MS10] | – | 1 specific activity to metastin (1-54) | 300 nM | – | – | –
[dY][dN][4Pal]NSF[azaGly]L[Arg(Me)]F-NH2 [Compound No. 303: [D-Tyr1,D-Asn2,Pya(4) 3,AzaGly7,Arg(Me)9]MS10] | – | – | 0.5 nM | 41.2 nM | 5 specific activity to metastin (1-54) | –
[dY]N[Cha]NSFGL[Arg(Me)]F-NH2 (N-terminus assumed; SMILES CNC(=N)NCCC[C@H](NC(=O)[C@H](CC(C)C)NC(=O)CNC(=O)[C@H](Cc1ccccc1)NC(=O)[C@H](CO)NC(=O)[C@H](CC(N)=O)NC(=O)[C@H](CC1CCCCC1)NC(=O)[C@H](CC(N)=O)NC(=O)[C@H](N)Cc1ccc(O)cc1)C(=O)N[C@@H](Cc1ccccc1)C(N)=O) [Compound No. 171: [D-Tyr1,Cha3,Arg(Me)9]MS10] | – | 10 specific activity to metastin (1-54) | 110 nM | – | – | –
[dY]N[4Pal]NSF[azaGly]L[Arg(Me)]F-NH2 [Compound No. 286: [D-Tyr1,Pya(4) 3,AzaGly7,Arg(Me)9]MS10] | – | – | 17 nM | 18.3 nM | – | 2 specific activity to metastin (1-54)
{Propanoyl(3-(3-pyridyl))}-NSF[azaGly]L[Arg(Me)]F-NH2 (SMILES CNC(=N)NCCC[C@H](NC(=O)[C@H](CC(C)C)NC(=O)NNC(=O)[C@H](Cc1ccccc1)NC(=O)[C@H](CO)NC(=O)[C@H](CC(N)=O)NC(=O)CCc1cccnc1)C(=O)N[C@@H](Cc1ccccc1)C(N)=O, also called KiSS322; KiSS1-322) [Compound No. 322: des(1-3)-3-Pyridylpropionyl-[AzaGly7,Arg(Me)9]MS10] | – | – | 54 nM | 71.9 nM | 1 specific activity to metastin (1-54) | –
YNWNSFGLR[Bta]-NH2 (N-terminus assumed; SMILES CC(C)C[C@H](NC(=O)CNC(=O)[C@H](Cc1ccccc1)NC(=O)[C@H](CO)NC(=O)[C@H](CC(N)=O)NC(=O)[C@H](Cc1c[nH]c2ccccc12)NC(=O)[C@H](CC(N)=O)NC(=O)[C@@H](N)Cc1ccc(O)cc1)C(=O)N[C@@H](CCCNC(=N)N)C(=O)N[C@@H](Cc1csc2ccccc12)C(N)=O) [Compound No. 189: [Ala(3-Bzt)10]MS10] | – | 10 specific activity to metastin (1-54) | 230 nM | – | – | –
YNWNSFG[Abu]RF-NH2 (N-terminus assumed; SMILES CC[C@H](NC(=O)CNC(=O)[C@H](Cc1ccccc1)NC(=O)[C@H](CO)NC(=O)[C@H](CC(N)=O)NC(=O)[C@H](Cc1c[nH]c2ccccc12)NC(=O)[C@H](CC(N)=O)NC(=O)[C@@H](N)Cc1ccc(O)cc1)C(=O)N[C@@H](CCCNC(=N)N)C(=O)N[C@@H](Cc1ccccc1)C(N)=O) [Compound No. 187: [Abu8]MS10] | – | 1 specific activity to metastin (1-54) | 720 nM | – | – | –
YNWNSXGLRF (Cha6; C-terminal amide) [Compound No. 156: [Cha6]MS10] | – | 2 specific activity to metastin (1-54) | 49 nM | – | – | –
YNWNSFGLR[Phe(3,4-Cl2)]-NH2 [Compound No. 199: [Phe(3,4Cl2)10]MS10] | – | 3 specific activity to metastin (1-54) | 470 nM | – | – | –
